Measured values reported in patent publication US7037663B2, “Human zona pellucida protein 3 and uses thereof” (Eastern Virginia Medical School, priority 1998, dated 2006).

What was measured:
[1] = test system: human sperm; experiment: Acrosome reaction of capacitated sperm by FITC/PSA with Hoechst 33258 viability stain, first series; format: cell-based
Method: The purified rhZP3 was also applied to test its activity to induce human sperm acrosome reaction. The motile sperm obtained by swim-up procedure were allowed to capacitate in HTF/0.5% HSA for four hours at 37° C. in 5% CO2 in huminified air. The motile sperm concentration used to detect acrosome reaction was set at 2 million/ml. A series of 100 ul of capacitated sperm aliquots with different inducers were prepared in Eppendorf vials and cultured in the incubator in 95% air, 5% CO2, at 37° C. for 30 minutes. The test was conducted as follows: positive control: calcium ionophore A23187 (Sigma) at 5 μM; negative controls: 1) sperm culture medium alone, and 2) protein isolated from the culture media of non-transfected PA-1 cells (NT); test: rhZP3. Triple slides were made for each assay. Hoechst 33258 stain was used for determination of sperm viability. Fluorescein isothiocyanate conjugated Pisum sativum agglutinin (FITC/PSA) (Sigma) staining technique was employed to evaluate the acrosome reaction (Cross et al, 1986). Blind reading was required for evaluation and at least 100˜200 cells from 5 random fields were evaluated per spot on the slide. […] The results were expressed as percentage of acrosome-reacted spermatozoa in the total population counted (Cross, 1986).
In some experiments, Solubilized zona pellucida were used as control to test its function to induce sperm acrosome reaction. The solubilized zona pellucida were prepared according to Franken et al (1996). Ooplasma was removed using a small glass micropipette. A vigorous pipetting action would break their zona causing ooplasma to be spilled into surrounding medium. The chosen amount of zonae was transferred into an eppendorf tube and was centrifuged for 15 minutes at 300×g. Using a steromicroscope, the media were removed with pipette, making sure not to disturb zona. The final result was to remove maximum medium. A chosen volume (depending on the zona concentration needed) of 10 mM HCl was added. Under the microscopic vision, zona/HCl was pipetted up and down until all zona were dissolved. Then 10 mM NaOH of equal volume as the HCl was added and mixed well to obtain the stock zona solution.

[2] = test system: sperm-zona pellucida binding; experiment: Hemizona assay (HZA), competitive inhibition of sperm-zona binding, first series; format: cell-based, human
Text: An inverted, phase-contrast microscope equipped with a micromanipulation system was routinely employed to cut the oocyte into halves to obtain matching hemizonae. Oocytes used in the experiments were obtained from surgically-removed ovarian tissue or discarded from IVF therapy under approval of the Institutional Review Board at Eastern Virginia Medical School. The hemizonae were washed in PBS to completely deplete the cytoplasm. Sperm samples were from healthy fertile donors. A swim-up procedure was applied to obtain motile sperm, which were then adjusted to 0.5 million/ml in Human Tubal Fluid (HTF) supplemented with 0.3% Human Serum Albumin (HSA) for hemizona assay. In one Petri dish, one droplet of 100 ul of sperm suspension was placed as a control. Another droplet of sperm was pre-treated with rhZP3. One hemizona was placed into the control droplet and the matching hemizona was placed in the sperm droplet treated with rhZP3. Five pairs of hemizona were used for each experiment. All dishes were incubated at 37° C., 5% CO2 for 4 hours. Each hemizona was removed and rinsed 15 times in PBS, and transferred to the counting dish. The number of sperm bound to the surface of each hemizona was counted under phase microscopy. The HZI was calculated to evaluate rhZP3-binding activity (competitive inhibition) as follows: number of sperm bound for treatment/number of sperm bound for control×100.

[3] = test system: human sperm; details: Dong et al 2000; cited from earlier work

inhibition of sperm-ZP binding ([2]; 30 ng/ml, sperm pre-incubated 30 min): approximately 60%
HZI (Mean ± SEM) ([2]; test reagent 30 ng/ml versus control 30 ng/ml NT): 44.5 (3.6)
HZI (Mean ± SEM) ([2]; test reagent 30 ng/ml versus control HTF/0.5% HSA, 30 min pre-incubation, 4 h with hemizona): 43.6 (3.3)
B1: rhZP3: recombinant human zona pellucida protein 3 with six-histidine tail, expressed in human ovarian PA-1 cells; secreted glycoprotein of approximately 65 Kd (protein)
chain: QPLWLLQGGASHPETSVQPVLVECQEATLMVMVSKDLFGTGKLIRAADLTLGPEACEPLVSMDTEDVVRFEVGLHECGNSMQVTDDALVYSTFLLHDPRPVGNLSIVRTNRAEIPIECRYPRQGNVSSQAILPTWLPFRTTVFSEEKLTFSLRLMEENWNAEKRSPTFHLGDAAHLQAEIHTGSHVPLRLFVDHCVATPTPDQNASPYHTIVDFHGCLVDGLTDASSAFKVPRPGPDTLQFTVDVFHFANDSRNMIYITCHLKVTLAEQDPDELNKACSFSKPSNSWFPVEGSADICQCCNKGDCGTPSHSRRQPHVMSQWSRSASRNHHHHHH
increase of the percentage of acrosome-reacted sperm from control conditions ([1]; 30 ng/ml, 30 minutes pre-incubation): 150%
% acrosome reacted-sperm ([1]; NT 30 ng/ml, calcium ionophore 5 μM, rhZP3 30 ng/ml, solubilized zona 0.5 ZP/μl, 4 h capacitation, 30 min, mean (± SEM)): 18.3%
range of maximal effect, acrosome reaction-inducing activity [3]: 30-1,000 ng/ml
